From patent publication US20250304693A1 (HIFIBIO, published 2025) come the findings set out here.

For one experiment, the target named is T1, recombinant human BTLA (human, UniProt Q7Z6A9 31-157, limits assumed).
T1 construct: ELISA antigen; construct not described
T1 sequence (looked up): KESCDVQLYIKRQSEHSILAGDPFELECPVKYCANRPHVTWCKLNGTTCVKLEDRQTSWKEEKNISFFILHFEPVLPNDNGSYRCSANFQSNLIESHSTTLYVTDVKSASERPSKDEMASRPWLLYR
The experiment is described as follows: ELISA on recombinant human BTLA. For orientation: ELISA stands for enzyme-linked immunosorbent assay.

For experiment [1], the target named is T2, human BTLA (B- and T-lymphocyte attenuator) on cells (human, UniProt Q7Z6A9 31-289). The experiment is described as follows: cell-based or functional assay.
In experiment [2] the target is T2, human BTLA (B- and T-lymphocyte …). The experiment is described as follows: cell-based or functional assay. The source holds these as a separate data set.
A further experiment addresses T3, cynomolgus BTLA on cells (cynomolgus, UniProt A0A2K5W7M7 31-289).
T3 construct: whole, on cells; Overexpressed on Expi293 cells; also called cyno BTLA; CynoBTLA
T3 sequence: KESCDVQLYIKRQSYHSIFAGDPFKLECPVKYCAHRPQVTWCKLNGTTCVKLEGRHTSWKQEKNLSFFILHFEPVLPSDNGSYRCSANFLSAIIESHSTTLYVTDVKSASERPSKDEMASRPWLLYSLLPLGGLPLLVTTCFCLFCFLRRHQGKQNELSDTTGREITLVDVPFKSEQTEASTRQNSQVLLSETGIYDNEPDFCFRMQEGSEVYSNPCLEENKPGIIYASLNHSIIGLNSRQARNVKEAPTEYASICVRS
As to the kind of experiment: FACS on Expi293.cynoBTLA cells, AF647 anti-human IgG Fc detection. How it is done: (§1) In FIGS. 11A and 11B, HEK293 overexpressing human BTLA (FIG. 11A) and Expi293 cells overexpressing cynomolgus BTLA (FIG. 11B) were incubated with different concentrations of selected HFB6-3 humanized variants with cysteine mutations. Anti-BTLA antibodies binding to target cells were quantified with an AF647-conjugated anti-human IgG Fc 2nd antibody by FACS. HFB6-3hz24-hG4P-C109A, HFB6-3hz25-hG4P-C109A, HFB6-3hz24-hG4P-C109S and HFB6-3hz25-hG4P-C109S bound to human BTLA and cyno BTLA with single digit nM and sub-nM EC₅₀, similar as parental HFB6-3 (FIGS. 11A and 11B and Table 13).

Experiment [3] concerns the target T2, human BTLA (B- and T-lymphocyte …). As to the kind of experiment: FACS on HEK293T.hBTLA cells, AF647 anti-human IgG Fc detection. How it is done: as §1
The target is the same in experiment [4]. As to the kind of experiment: FACS competition on HEK293T.hBTLA cells; competitor hrHVEM-His-DL650. Here is the method:
In FIG. 12A, recombinant HVEM soluble protein was conjugated with DyLight 650 (DL650) fluorophore. HEK293 cells overexpressing hBTLA (HEK293.BTLA) were preincubated with increasing concentrations of selected HFB6-3 humanized variants with cysteine mutants or parental HFB6-3 at 4° C. for 30 minutes and then with DL650-conjugated HVEM for additional 30 minutes. After washing, soluble HVEM remaining associated with BTLA on HEK293.BTLA cells was measured by FACS.

Substitutions are numbered along the chain they refer to.

B1: HFB6-2hz19-hG4P (antibody, V domains shown)
VH: EVQLLESGGGLVQPGGSLRLSCAASGVNIKDTYMYWVRQAPGKGLEWIGRIDPANGYTRYADSVKGRFTISADNSKNTLYLQMNSLRAEDTAVYYCAVNDGYFEYFDVWGQGTTVTVSS
VL: DIVMTQSPDSLAVSLGERATINCKSSQSLLDSDGKPYLNWLQQKPGQSPKRLIYLVSKLDSGVPDRFSGSGSGTDFTLTISSVQAEDVAVYYCWQDTHFPRTFGQGTKLEIK
notes: Humanized variant of HFB6-2
Regarding B1, in the experiment with recombinant human BTLA, the EC50 (in general, the concentration at which the effect is half-maximal) was found to be 2.55 nM. Besides, the “Reporter EC50” value in experiment [1] was 22.1 nM.

B2: HFB6-3hz24-hG4P-C109A (antibody, V domains shown)
VH: QVQLQESGPGLVKPSGTLSLTCADSGFNIKDTYIHWVRQPPGKGLEWIGRIDPANGFTRYNPSLKSRVTISSDKSKNQASLKLSSVTAADTAVYYCAREDGYPYYTLDAWGQGTTVTVSS
VL: B1 VL with V13L, S32V, P36T, L41F, S48P, D96G
notes: Humanized variant of HFB6-3
As for B2, the “CHO.TCRa.hHVEM/Jurkat.hBTLA.NFAT-luc (EC50 (nM))” value in experiment [2] was determined as 13 nM. Besides, the figures for the 50% effective concentration (EC50) (in the experiment with cynomolgus BTLA on cells; in experiment [3]) were 6.89 nM and 3.27 nM, respectively. Also, the IC50 (usually the concentration needed to halve the response being measured) in experiment [4] amounted to 2.64 nM.

B3: HFB6-2hz20-hG4P (antibody, V domains shown)
VH: QVQLQESGPGLVKPSGTLSLTCAASGVNIKDTYMYWVRQPPGKGLEWIGRIDPANGYTRYNPSFKSRATVSADKSKNQASLKLSSLTAADTAVYYCAVNDGYFEYFDVWGQGTTVTVSS
VL: B1 VL
notes: Humanized variant of HFB6-2
For B3, in the experiment with recombinant human BTLA, the concentration for a half-maximal effect (EC50) came out at 2.51 nM. The “Reporter EC50” value in experiment [1] was determined as 9.77 nM.

B4: HFB6-3hz25-hG4P-C109A (antibody, V domains shown)
VH: B2 VH with N28S, K30S
VL: B1 VL with V13L, S32V, P36T, L41F, S48P, D96G
notes: Humanized variant of HFB6-3
B4: in experiment [2], the “CHO.TCRa.hHVEM/Jurkat.hBTLA.NFAT-luc (EC50 (nM))” value is 10.2 nM. Besides, the EC50 with cynomolgus BTLA on cells worked out at 9.69 nM; in experiment [3], 3.2 nM. In experiment [4], this molecule registered an IC50 of 2.61 nM.

B5: HFB6-3hz25-hG4P-C109S (antibody, V domains shown)
VH: B2 VH with N28S, K30S, A109S
VL: B1 VL with V13L, S32V, P36T, L41F, S48P, D96G
notes: Humanized variant of HFB6-3
On to B5, for which the “CHO.TCRa.hHVEM/Jurkat.hBTLA.NFAT-luc (EC50 (nM))” value in experiment [2] was 14.4 nM. In addition, the EC50 with cynomolgus BTLA on cells worked out at 8.83 nM; in experiment [3] it was 4.04 nM. This molecule returned an IC50 in experiment [4] of 3.2 nM.

B6: HFB6-3hz24-hG4P-C109S (antibody, V domains shown)
VH: B2 VH with A109S
VL: B1 VL with V13L, S32V, P36T, L41F, S48P, D96G
notes: Humanized variant of HFB6-3
On to B6, for which, in experiment [2], the “CHO.TCRa.hHVEM/Jurkat.hBTLA.NFAT-luc (EC50 (nM))” value is 16.6 nM. Further, the EC50 worked out at 7.83 nM with cynomolgus BTLA on cells and 3.6 nM in experiment [3]. Moreover, the IC50 in experiment [4] was found to be 3.22 nM.

B7: HFB6-3hz20-hG4P (antibody, V domains shown)
VH: B2 VH with L64F, V68A, A109C
VL: B1 VL with V13L, S32V, P36T, L41F, S48P, D96G
notes: Humanized variant of HFB6-3
Consider B7, for which the EC50 with cynomolgus BTLA on cells came to 7.38 nM; in experiment [3], 3.84 nM. In experiment [4], this molecule came in with a 50% inhibitory concentration (IC50) of 2.91 nM.

B8: HFB6-2hz9-hG4P (antibody, V domains shown)
VH: QVQLVQSGAEVKKPGASVKVSCKASGVNIKDTYMYWVRQAPGQGLEWIGRIDPANGYTRYAQKFQGRATVTADTSTSTVYLELSSLRSEDTAVYYCAVNDGYFEYFDVWGQGTTVTVSS
VL: EIVLTQSPGTLSLSPGERATLSCRSSQSLLDSDGKPYLNWLQQKPGQAPRRLIYLVSKLDSGIPDRFSGSGSGTDFTLTISRLEPEDLAVYYCWQDTHFPRTFGQGTKLEIK
notes: Humanized variant of HFB6-2
B8: in the experiment with recombinant human BTLA, the 50% effective concentration (EC50) worked out at 3.29 nM. Further, in experiment [1], the “Reporter EC50” value amounted to 36.7 nM.

B9: HFB6-2hz16-hG4P (antibody, V domains shown)
VH: B8 VH
VL: B1 VL
notes: Humanized variant of HFB6-2
For B9, the 50% effective concentration (EC50) in the experiment with recombinant human BTLA was found to be 2.39 nM. Moreover, the “Reporter EC50” value in experiment [1] was 10.8 nM.

B10: HFB6-2hz12-hG4P (antibody, V domains shown)
VH: B1 VH
VL: B8 VL
notes: Humanized variant of HFB6-2
Turning to B10, in the experiment with recombinant human BTLA, the EC50 is 5.05 nM. The “Reporter EC50” value in experiment [1] was 43.2 nM.

B11: HFB6-2hz11-hG4P (antibody, V domains shown)
VH: B8 VH with A16S, T58A, T74K, V79A
VL: B8 VL
notes: Humanized variant of HFB6-2
Turning to B11, in the experiment with recombinant human BTLA, the half-maximal effective concentration (EC50) was determined as 3.66 nM. In experiment [1], the “Reporter EC50” value came out at 19.4 nM.

B12: HFB6-2hz0-hG4P (antibody, V domains shown)
VH: B8 VH with A16S, T58A, V70I, T74E, V79A
VL: B8 VL
With B12, the EC50 with recombinant human BTLA was 3.21 nM. The “Reporter EC50” value in experiment [1] was determined as 47 nM.

B13: HFB6-2hz17-hG4P (antibody, V domains shown)
VH: B8 VH with A16S, T58A, V70I, T74E, V79A
VL: B1 VL
notes: Humanized variant of HFB6-2
With B13, the EC50 with recombinant human BTLA worked out at 2.4 nM. Also, the “Reporter EC50” value in experiment [1] was determined as 18.2 nM.

B14: HFB6-2hz8-hG4P (antibody, V domains shown)
VH: B8 VH with A68V, V70M, L81M
VL: B8 VL
notes: Humanized variant of HFB6-2
Regarding B14, the EC50 with recombinant human BTLA came to 3.96 nM. In experiment [1], the “Reporter EC50” value was 66.8 nM.

B15: HFB6-2hz18-hG4P (antibody, V domains shown)
VH: B8 VH with A16S, T58A, T74K, V79A
VL: B1 VL
notes: Humanized variant of HFB6-2
Take B15: the EC50 in the experiment with recombinant human BTLA worked out at 2.24 nM. Also, in experiment [1], the “Reporter EC50” value came to 10.8 nM.

B16: HFB6-2hz15-hG4P (antibody, V domains shown)
VH: B8 VH with A68V, V70M, L81M
VL: B1 VL
notes: Humanized variant of HFB6-2
As to B16, the EC50 with recombinant human BTLA was found to be 2.74 nM. In experiment [1], the “Reporter EC50” value was found to be 19.6 nM.
